The values that follow come from US20250163176A1, “MONOCLONAL ANTIBODY AGAINST TROP2 AND USE THEREOF” (INSTITUTE OF MEDICAL BIOTECHNOLOGY, CHINESE ACADEMY OF …, priority 2022, published 2025).

As a reminder, the EC50 (read off the curve) is the concentration that produces a half-maximal response. Broadly, the Kd is the equilibrium constant for the complex coming apart. In general, koff refers to the first-order rate constant of dissociation. Read a high koff as fast dissociation. One may read the kon as the rate constant with which the complex forms. High values mean fast association, low ones slow association.

Data set [1] deals with recurrent and refractory triple-negative breast cancer. The settings on record: patients; cited from earlier work.
Data set [2] concerns small cell lung cancer. The settings on record: patients, phase II; cited from earlier work.
The target in data set [3] is T1, Trop2 antigen (human, UniProt P09758 27-274, limits assumed).
T1 construct: also called human trophoblast cell surface antigen 2; tumor-associated calcium signal transducer 2
T1 sequence (looked up): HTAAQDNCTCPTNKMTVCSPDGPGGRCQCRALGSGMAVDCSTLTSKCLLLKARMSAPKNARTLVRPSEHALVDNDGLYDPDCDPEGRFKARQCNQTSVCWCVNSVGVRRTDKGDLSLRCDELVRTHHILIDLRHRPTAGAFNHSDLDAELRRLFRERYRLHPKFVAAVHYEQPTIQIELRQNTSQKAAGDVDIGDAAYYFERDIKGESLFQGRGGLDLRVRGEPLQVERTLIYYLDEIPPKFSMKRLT
The data set can be described thus: indirect ELISA on plates coated with Trop2 antigen at 0.1, 0.2 and 0.4 µg/mL; Ka calculated from the antibody concentrations at half-maximal binding. On the procedure:
(§1) A Trop2 antigen was diluted to three dilutions (0.1 μg/mL, 0.2 μg/mL, and 0.4 μg/mL) and coated onto ELISA plates. […] An antigen-antibody reaction curve was determined using an indirect ELISA. […] The unit of Ka is M⁻¹. In this formula, [Ab] represents the antibody concentration corresponding to A=½Amax when the antigen concentration is [Ag]; [Ab]t represents the antibody concentration corresponding to A=½Amax when the antigen concentration is [Ag]t; [Ag] and [Ag]t represent the antigen concentrations; and n is the dilution factor between [Ag] and [Ag]t. (FIG. 7)

The target of data set [4] is T1, Trop2 antigen. Kind of data set: indirect ELISA, Trop2 antigen coated at 0.2 µg/ml. On the procedure: as §1
Background: An ELISA detects its analyte on a solid surface through an enzyme-linked reagent.

Data set [5] addresses T1, Trop2 antigen. The data set can be described thus: Biacore SPR; antibody amine-coupled to CM5 chip, Trop2 antigen as analyte. On the procedure: Amino of an anti-Trop2 antibody was coupled to a CM5 chip, with pH of 5.0, an antibody concentration of 10 μg/mL, sample injection time of 60 s, and flow rate of 10 μL/min, and a coupling amount of 378.6 RU. […] (FIG. 6)
The target of data set [6] is T1, Trop2 antigen. The data set can be described thus: indirect ELISA, Trop2 antigen coated at 0.4 µg/ml. As for the experimental part:
as §1

Data set [7] concerns the target T1, Trop2 antigen. Kind of data set: indirect ELISA, Trop2 antigen coated at 0.1 µg/ml. On the procedure:
as §1

The target in data set [8] is T2, Trop2 antigen (Homo sapiens, UniProt P09758).
T2 sequence (P09758 27-323): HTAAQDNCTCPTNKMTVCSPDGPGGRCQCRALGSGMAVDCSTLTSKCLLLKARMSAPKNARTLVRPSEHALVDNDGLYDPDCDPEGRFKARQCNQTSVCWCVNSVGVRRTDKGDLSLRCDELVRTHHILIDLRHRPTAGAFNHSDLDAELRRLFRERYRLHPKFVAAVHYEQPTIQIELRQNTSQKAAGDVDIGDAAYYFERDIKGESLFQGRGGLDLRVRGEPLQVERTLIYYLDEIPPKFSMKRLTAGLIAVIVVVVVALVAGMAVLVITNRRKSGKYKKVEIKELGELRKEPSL
Kind of data set: antibody-antigen affinity analysis by Biacore method. The data set is classed as binding. The settings on record: antibody coupled to CM5 chip, FIG. 6. On the procedure:
Amino of an anti-Trop2 antibody was coupled to a CM5 chip, with pH of 5.0, an antibody concentration of 10 μg/mL, sample injection time of 60 s, and flow rate of 10 μL/min, and a coupling amount of 378.6 RU. Trop2 antigen at different concentrations (0, 0.814, 1.628, 3.256, 6.512, 13.025, 26.05, and 52.1 μg/mL) was taken for flowing over the chip with a sample injection time of 60 s, flow rate of 30 μL/min, dissociation time of 600 s, and regeneration conditions of glycine-HCl, and pH 1.5 (100 s, 30 μL/min) to obtain Biacore affinity graphs and affinity constant. (FIG. 6)
(In SPR one partner is held on a chip, and binding of the other changes the refractive index at the surface.)

In data set [9] the target is T2, Trop2 antigen. Kind of data set: antibody-antigen affinity constant by ELISA. The data set is classed as binding. The settings on record: indirect ELISA, FIG. 7. On the procedure: A Trop2 antigen was diluted to three dilutions (0.1 μg/mL, 0.2 μg/mL, and 0.4 μg/mL) and coated onto ELISA plates. An anti-Trop2 monoclonal antibody was diluted to concentrations of (1, 0.2, 0.04, 0.008, 0.0016, 0.00032, 0.000064, and 0.0000128 μg/mL). An antigen-antibody reaction curve was determined using an indirect ELISA. […] The unit of Ka is M^−1. In this formula, [Ab] represents the antibody concentration corresponding to A=½Amax when the antigen concentration is [Ag]; [Ab]t represents the antibody concentration corresponding to A=½Amax when the antigen concentration is [Ag]t; [Ag] and [Ag]t represent the antigen concentrations; and n is the dilution factor between [Ag] and [Ag]t. (FIG. 7)

For data set [10], the system named is tumor tissues. The data set is classed as in vivo, mice. As for the experimental part:
BXPC-3, MDA-MB-231, and NIH3T3 cells were inoculated in the axilla of mice at 6×10^4 cells/mouse. When the tumor volume reached […], an anti-Trop2 antibody was labeled using a Dylight 680 antibody kit. The anti-Trop2 antibody was injected via tail vein into mice at 20 mg/kg. In vivo imaging was performed at 30 min, 1 h, 2 h, 3 h, 4 h, 6 h, 8 h, 10 h, 12 h, 14 h, 24 h, 30 h, 36 h, 48 h, 60 h, 72 h, 84 h, 96 h, 108 h, 120 h, 132 h, 144 h, 156 h, 168 h, 192 h, 216 h, 240 h, and 264 h. (FIG. 11)

Data set [11] relates to Trop2-positive cells HCC-827. The data set can be described thus: confocal immunofluorescence, endocytosis of antibody. The settings on record: HCC-827, confocal microscopy, FIG. 9. The data set is classed as cell-based, human. As for the experimental part: HCC-827 cells in logarithmic growth phase were prepared into a single-cell suspension, after cell counting, which was inoculated into a cell slide at 1×10^4 cells/well/200 μL, and then incubated at 37° C. for 24 h. An anti-Trop2 antibody at 10 μg/mL, 200 μL/well, was added. For the binding of antibody to the cell surface, cells were incubated after being added with antibody IMB1636 at 4° C. for 30 min. The cells were collected for washing three times with PBS, fixed with 4% paraformaldehyde (200 μL/well) for 15 min, washed three times with PBST, permeabilized with 0.2% Triton-X100 (200 μL+100 mL PBS) for 10 min, washed three times with PBST, blocked with 5% BSA at 37° C. for 30 min. The cells were added with secondary antibody (goat anti-mouse AF488) at 3 μL+1.5 mL PBST, 200 μL/well, and incubated at 37° C. for 30 min, washed five times with PBST, stained with DAPI for 15 min, washed three times with PBST, and dropwise added with an anti-fluorescence quenching agent for observation under a confocal microscope.
For the case of endocytosis of antibody, cells were added with antibody IMB1636 and incubated at 37° C. for 2 h. […] Other steps were the same as above. Co-localization of antibody IMB1636 with lysosomes was observed. (FIG. 9)

In data set [12] the target is T3, Trop2 (Homo sapiens, UniProt P09758).
T3 sequence (P09758 27-323): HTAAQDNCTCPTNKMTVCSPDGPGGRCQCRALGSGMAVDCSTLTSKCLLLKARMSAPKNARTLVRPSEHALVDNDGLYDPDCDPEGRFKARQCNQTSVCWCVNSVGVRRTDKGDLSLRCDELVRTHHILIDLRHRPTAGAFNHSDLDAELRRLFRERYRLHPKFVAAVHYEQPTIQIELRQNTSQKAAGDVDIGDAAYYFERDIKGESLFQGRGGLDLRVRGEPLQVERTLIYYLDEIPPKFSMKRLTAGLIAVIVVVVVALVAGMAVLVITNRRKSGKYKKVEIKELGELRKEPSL
Kind of data set: antibody titer detected by indirect ELISA. The data set is classed as binding. The settings on record: FIG. 2. An excerpt:
Hybridoma cell lines for detection was continuously cultured before and after cryopreservation. The antibody titer in the cell supernatant was detected by indirect ELISA.

Data set [13] concerns BxPC-3. The data set can be described thus: binding ability of antibody to tumor cells by immunofluorescence. The data set is classed as cell-based. The settings on record: BxPC-3 highly expressing Trop2, immunofluorescence, FIG. 8. On the procedure: NIH3T3, MDA-MB-231, and BXPC-3 cells were cultured on cell slides at 1×10^4 cells/well and incubated at 37° C. for 24 h. The cells after incubation were fixed with 4% paraformaldehyde for 30 min, followed by washing three times with pre-cooled PBS at 4° C., blocking with 1% BSA in PBST solution at 4° C. overnight, and adding with purified anti-Trop2 antibody at a concentration of 10 μg/mL and incubating at 4° C. overnight. An SP2/0 ascites served as a negative control. The cells were washed three times with PBST pre-cooled to 4° C., added with rhodamine-labeled goat anti-mouse IgG secondary antibody diluted 1:200 at room temperature for incubation for 1.5 h in the dark. The cells after incubation were washed three times with PBST, and one drop of 4′,6-diamidino-2-phenylindole (DAPI) (1 mg/mL) was added to each well for incubation for 10 min. Observations and photographs were taken under a fluorescence microscope. (FIG. 8)

Data set [14] has as its system human lung squamous cell carcinoma tumor tissues. Kind of data set: human tumor tissue chip detection. The data set is classed as binding. The settings on record: FIG. 12. As for the experimental part: All tumor tissue chips used in this experiment were purchased from Shanghai Outdo Biotech Co., Ltd. The main experimental steps included: slide baking, dewaxing, antigen retrieval, endogenous peroxidase blocking, primary antibody incubation, secondary antibody incubation, diaminobenzidine (DAB) developing, hematoxylin counterstaining, and slide blocking. (FIG. 12)

The subject of data set [15] is tumor cell membrane that highly expresses Trop2 antigen. Kind of data set: binding ability of antibody to tumor cells by flow cytometry. The data set is classed as cell-based. The settings on record: FIG. 10. As for the experimental part: BXPC-3, MDA-MB-231, and NIH 3T3 cells were separately collected at 5×10^6 cells/EP tube, washed with 100 μL of PBS containing 2% FBS pre-cooled to 4° C., and resuspended in 100 μL of PBS containing 2% FBS. Anti-Trop2 antibody at concentrations of 3, 1, 0.3, 0.1, 0.03, 0.01, and 0.003 μg/mL was separately added at 100 μL/tube, with SP2/0 ascite as a negative control. The cells were incubated at 4° C. for 1.5 h, washed with PBS containing 2% FBS, and added with 200 μL of fluorescein isothiocyanate (FITC)-labeled goat anti-mouse IgG secondary antibody (diluted 1:200) for incubation at 4° C. for 1 h in the dark. The cells were washed three times with PBS, and detected by flow cytometry. (FIG. 10)
On the technique in general: A flow cytometer gives signals particle by particle.

For the molecule IMMU-132, in [1], the “average time from administration to taking effect” value is 1.9 months, the clinical effective rate was 46%, the objective remission rate was 30% and the overall survival time is 16.6 months. In [1], the progression-free survival time is listed as 6 months. Moreover, in data set [2], the clinical effective rate is 43%, the “median overall survival time” value was 9.5 months, the “median progression-free survival time” value is 5.2 months and the median remission time was 6 months. Also, the objective remission rate in data set [2] was 19%.

B1: anti-Trop2 monoclonal antibody IMB1636 (antibody, V domains shown)
VH: QVQLQQSGAELVRPGTSVKISCKASGYTFTNYWLGWVKQRPGHGLEWIGNIFPGGGYTNYNEKFKGKAILTADTSSSTAYMQLSSLTSEDSGVYFCAREGVMDYWGQGTTLTVSS
VL: DILLTQSPAILSVSPGERVSFSCRASQNIGTSIHWYQQRTNGFPRLLIKYASESISGIPSRFSGSGSGTDFTLSINSVESEDIADYYCQQSYSWPFTFGSGTKLEIK
notes: also called mouse-derived anti-Trop2 monoclonal antibody; anti-Trop2 antibody
As for B1, the Ka in data set [3] was 3.9e+10 M⁻¹. Moreover, the “EC50 (read off the curve)” value in data set [4] is roughly 5 ng/mL. Besides, in data set [5], the affinity, expressed as Kd, was 484 pM; the dissociation rate constant (koff) came to 0.00073 s⁻¹; the kon was 1.51e+06 M⁻¹ s⁻¹. Besides, the “EC50 (read off the curve)” value in data set [6] is roughly 5 ng/mL. Moreover, in data set [7], the “EC50 (read off the curve)” value was roughly 5 ng/mL.

B2: antibody: mouse-derived anti-Trop2 monoclonal antibody (IgG1, Kappa) from hybridoma Y1636-1, CGMCC No. 18167; VL SEQ ID NO:1, VH SEQ ID NO:9 (antibody, V domains shown)
VH: MEWSGVFIFLLSVTADVHSQVQLQQSGAELVRPGTSVKISCKASGYTFTNYWLGWVKQRPGHGLEWIGNIFPGGGYTNYNEKFKGKAILTADTSSSTAYMQLSSLTSEDSGVYFCAREGVMDYWGQGTTLTVSS
VL: MVSTPQFLVFLLFWIPASRGDILLTQSPAILSVSPGERVSFSCRASQNIGTSIHWYQQRTNGFPRLLIKYASESISGIPSRFSGSGSGTDFTLSINSVESEDIADYYCQQSYSWPFTFGSGTKLEIK
modifications: mouse IgG1/kappa constant regions, no entry
Turning to B2, in data set [8], the ka came out at 1.057e+06 M⁻¹ s⁻¹ and the kd was found to be 0.0007297 s⁻¹. Also, the “affinity constant Ka” value in [9] came to 3.9e+10 M⁻¹. In addition, the “targeting of tumor tissues in vivo” value in [10] (mice, in vivo imaging, FIG. 11) is “highly target tumor tissues”. Also, the “time remaining in the tumor tissue” value in [10] (mouse, in vivo) is reported as “over 11 days”. Moreover, in data set [11], the “endocytosis of the antibody” value is “efficiently endocytose”. Besides, in data set [12], the titer of antibody is 8000000. Moreover, in data set [13], the “membrane-binding activity with tumor cell membrane” value is “high membrane-binding activity”. The “binding to human tumor tissue” value in data set [14] was “highly and specifically bind”. Further, in data set [15], the “affinity activity with tumor cell membrane” value is “high affinity activity”.
